Experiment [1] deals with human TGFβ3, mature dimeric form (human) (UniProt P10600).
Experiment [2] addresses human TGFβ2, mature receptor-binding domain (human).
Experiment [3] deals with human TGFβ3, mature dimeric form (human) (UniProt P10600). The source holds these as a separate data set.
Experiment [4] deals with human TGFβ1, mature receptor-binding domain (human) (UniProt P01137).
Sequence of human TGFβ1, mature receptor-binding domain (human) (P01137 279-390 limits assumed): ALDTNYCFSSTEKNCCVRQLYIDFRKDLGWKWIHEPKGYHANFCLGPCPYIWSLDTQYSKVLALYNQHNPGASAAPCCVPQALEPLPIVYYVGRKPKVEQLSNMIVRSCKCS

Sequence of human TGFβ3, mature dimeric form (human) (P10600 301-412): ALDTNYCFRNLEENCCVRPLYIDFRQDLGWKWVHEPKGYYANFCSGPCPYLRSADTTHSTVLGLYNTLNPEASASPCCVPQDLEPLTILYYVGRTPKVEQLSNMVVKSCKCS
Sequence of human TGFβ2, mature receptor-binding domain (human) (P09858 303-414 limits assumed): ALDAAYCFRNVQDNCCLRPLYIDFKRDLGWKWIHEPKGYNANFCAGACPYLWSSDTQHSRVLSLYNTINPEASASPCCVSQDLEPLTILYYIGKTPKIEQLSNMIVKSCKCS

B1: Fc-LAP3 (Fc fusion, not shown: a dimerising Fc or GST)
chain: LSTCTTLDFGHIKKKRVEAIRGQILSKLRLTSPPEPTVMTHVPYQVLALYNSTRELLEEMHGEREEGCTQENTESEYYAKEIHKFDMIQGLAEHNELAVCPKGITSKVFRFNVSSVEKNRTNLFRAEFRVLRVPNPSSKRNEQRIELFQILRPDEHIAKQRYIGGKNLPTRGTAEWLSFDVTDTVREWLLRRESNLGLEISIHCPCHTFQPNGDILENIHEVMEIKFKGVDNEDDHGRGDLGRLKKQKDHHNPHLILMMIPPHRLDNPGQGGQRKKR
Turning to B1, the IC50 in experiment [1] was 2920 nM; in experiment [2], 12400 nM.

B2: Fc-LAP2 (Fc fusion, not shown: a dimerising Fc or GST)
chain: SLSTCSTLDMDQFMRKRIEAIRGQILSKLKLTSPPEDYPEPEEVPPEVISIYNSTRDLLQEKASRRAAACERERSDEEYYAKEVYKIDMPPFFPSENAIPPTFYRPYFRIVRFDVSAMEKNASNLVKAEFRVFRLQNPKARVPEQRIELYQILKSKDLTSPTQRYIDSKVVKTRAEGEWLSFDVTDAVHEWLHHKDRNLGFKISLHCPCCTFVPSNNYIIPNKSEELEARFAGIDGTSTYTSGDQKTIKSTRKKNSGKTPHLLLMLLPSYRLESQQTNRRKKR
In the case of B2, in experiment [3], the IC50 (read off the curve) was determined as 0.6 nM. The IC50 is 525 nM in experiment [1], 10100 nM in experiment [4] and 548 nM in experiment [2].

The values are drawn from patent publication US20210301005A1.
